Measured values from patent publication US20150139990A1 (DAINIPPON SUMITOMO PHARMA, published 2015).
Positions count from the first letter of the chain named. Numbers in names are those of the source.

T1: human CD81 mutant V135A (human, UniProt P60033 1-236, limits assumed)
T1 construct: as m30; not shown: C-terminal V5 and 6xHis tags
T1 sequence: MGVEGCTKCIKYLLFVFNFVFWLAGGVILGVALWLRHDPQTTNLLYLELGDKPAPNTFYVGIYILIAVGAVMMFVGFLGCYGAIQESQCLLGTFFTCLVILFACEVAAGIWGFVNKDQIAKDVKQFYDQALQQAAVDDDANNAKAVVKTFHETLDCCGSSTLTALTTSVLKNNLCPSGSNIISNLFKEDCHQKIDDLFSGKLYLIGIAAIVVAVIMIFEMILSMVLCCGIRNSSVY

T2: human CD81 mutant A164T (human, UniProt P60033 1-236, limits assumed)
T2 construct: as m30; not shown: C-terminal V5 and 6xHis tags
T2 sequence: T1 sequence with A135V, A164T

T3: human CD81 mutant L165A (human, UniProt P60033 1-236, limits assumed)
T3 construct: as m30; not shown: C-terminal V5 and 6xHis tags
T3 sequence: T1 sequence with A135V, L165A

T4: human CD81 mutant V169A (human, UniProt P60033 1-236, limits assumed)
T4 construct: as m30; not shown: C-terminal V5 and 6xHis tags
T4 sequence: T1 sequence with A135V, V169A

T5: human CD81 mutant A164V (human, UniProt P60033 1-236, limits assumed)
T5 construct: as m30; not shown: C-terminal V5 and 6xHis tags
T5 sequence: T1 sequence with A135V, A164V

T6: human CD81 mutant S168T (human, UniProt P60033 1-236, limits assumed)
T6 construct: as m30; not shown: C-terminal V5 and 6xHis tags
T6 sequence: T1 sequence with A135V, S168T

T7: human CD81 mutant V169L (human, UniProt P60033 1-236, limits assumed)
T7 construct: as m30; not shown: C-terminal V5 and 6xHis tags
T7 sequence: T1 sequence with A135V, V169L

T8: human CD81 on CD81-expressing cells (Jurkat E6.1, human PBMC, Ramos) (human, UniProt P60033 1-236)
T8 sequence: T1 sequence with A135V

T9: human CD81 mutant D137A (human, UniProt P60033 1-236, limits assumed)
T9 construct: as m30; not shown: C-terminal V5 and 6xHis tags
T9 sequence: T1 sequence with A135V, D137A

T10: human CD81 mutant G158S (human, UniProt P60033 1-236, limits assumed)
T10 construct: as m30; not shown: C-terminal V5 and 6xHis tags
T10 sequence: T1 sequence with A135V, G158S

T11: human CD81 mutant V135L (human, UniProt P60033 1-236, limits assumed)
T11 construct: as m30; not shown: C-terminal V5 and 6xHis tags
T11 sequence: T1 sequence with A135L

T12: human CD81 mutant D137E (human, UniProt P60033 1-236, limits assumed)
T12 construct: as m30; not shown: C-terminal V5 and 6xHis tags
T12 sequence: T1 sequence with A135V, D137E

T13: human CD81 mutant H151R (human, UniProt P60033 1-236, limits assumed)
T13 construct: as m30; also called H151B; not shown: C-terminal V5 and 6xHis tags
T13 sequence: T1 sequence with A135V, H151R

T14: human CD81 mutant I194A (human, UniProt P60033 1-236, limits assumed)
T14 construct: as m30; not shown: C-terminal V5 and 6xHis tags
T14 sequence: T1 sequence with A135V, I194A

B1: 002-A07 S115N (antibody, human IgG4 S228P, lambda, V domains shown)
VH: EVQLLESGGGLVQPGGSLRLSCAASGFTFSSNYMSWVRQAPGKGLEWVSYISSSSTYTDYADSVKGRFTISRDNSKNTLYLQMNSLRAEDTAVYYCARYSYGRDNFDYWGQGTLVTVSS
VL: QSVLTQPPSASGTPGQRVTISCTGSTSNIGAGYDTHWYQQLPGTAPKLLIYGNSNRPSGVPDRFSGSKSGTSASLAISGLRSEDEADYYCQSYDTNLNVWVFGGGTKLTVLG
notes: IgG4 S228P; glycosylation site mutant of 002-A07 VL
B2: 003-F08 (antibody, human IgG4 S228P, lambda, V domains shown)
VH: B1 VH with L45P, T58A
VL: B1 VL with P8S, N98S, V99A
notes: IgG4 S228P
B3: 002-C02 (antibody, human IgG4 S228P, lambda, V domains shown)
VH: B1 VH with T56S, S63T, R98S, N105S
VL: B1 VL with S82T, N98S
notes: IgG4 S228P
B4: 002-F01 (antibody, human IgG4 S228P, lambda, V domains shown)
VH: B1 VH
VL: B1 VL with N98S, V99A
notes: IgG4 S228P
B5: 002-B05 (antibody, human IgG4 S228P, lambda, V domains shown)
VH: B1 VH with G102S
VL: B1 VL with D34G, Q40R, N98S
notes: IgG4 S228P

Legend:
human CD81 mutant V135A = target: T1, human CD81 mutant V135A; assay: ELISA
human CD81 mutant A164T = target: T2, human CD81 mutant A164T; assay: ELISA
human CD81 mutant L165A = target: T3, human CD81 mutant L165A; assay: ELISA
human CD81 mutant V169A = target: T4, human CD81 mutant V169A; assay: ELISA
human CD81 mutant A164V = target: T5, human CD81 mutant A164V; assay: ELISA
human CD81 mutant S168T = target: T6, human CD81 mutant S168T; assay: ELISA
human CD81 mutant V169L = target: T7, human CD81 mutant V169L; assay: ELISA
[1] = target: T8, human CD81 on CD81-expressing cells …; assay: cell-based or functional assay
human CD81 mutant D137A = target: T9, human CD81 mutant D137A; assay: ELISA
human CD81 mutant G158S = target: T10, human CD81 mutant G158S; assay: ELISA
human CD81 mutant V135L = target: T11, human CD81 mutant V135L; assay: ELISA
human CD81 mutant D137E = target: T12, human CD81 mutant D137E; assay: ELISA
human CD81 mutant H151R = target: T13, human CD81 mutant H151R; assay: ELISA
human CD81 mutant I194A = target: T14, human CD81 mutant I194A; assay: ELISA

Binder | relative binding affinity (human CD81 mutant V135A) | relative binding affinity (human CD81 mutant A164T) | relative binding affinity (human CD81 mutant L165A) | relative binding affinity (human CD81 mutant V169A) | relative binding affinity (human CD81 mutant A164V) | relative binding affinity (human CD81 mutant S168T) | relative binding affinity (human CD81 mutant V169L) | Jurkat chemotaxis (% of control IgG4) at 0.001 µg/mL [1] | Jurkat chemotaxis (% of control IgG4) at 0.01 µg/mL [1] | Jurkat chemotaxis (% of control IgG4) at 0.1 µg/mL [1] | Jurkat chemotaxis (% of control IgG4) at 1 µg/mL [1] | Jurkat chemotaxis (% of control IgG4) at 10 µg/mL [1] | relative binding affinity (human CD81 mutant D137A) | relative binding affinity (human CD81 mutant G158S) | relative binding affinity (human CD81 mutant V135L) | relative binding affinity (human CD81 mutant D137E) | relative binding affinity (human CD81 mutant H151R) | relative binding affinity (human CD81 mutant I194A)
B1 | < 20% | < 20% | < 20% | < 20% | < 20% | < 20% | < 20% | 79% | 69% | -4% | -11% | -9% | – | – | – | – | – | –
B2 | < 20% | < 20% | < 20% | < 20% | < 20% | – | < 20% | 80% | 79% | 21% | -3% | -4% | < 20% | < 20% | < 20% | < 20% | < 20% | –
B3 | < 20% | < 20% | < 20% | < 20% | < 20% | – | < 20% | 106% | 104% | 31% | -5% | -4% | < 20% | – | – | < 20% | – | –
B4 | < 20% | < 20% | < 20% | < 20% | < 20% | < 20% | < 20% | 89% | 87% | 35% | 4% | 9% | – | – | – | – | – | < 20%
B5 | < 20% | < 20% | < 20% | < 20% | < 20% | – | < 20% | 84% | 78% | 10% | -1% | -10% | < 20% | < 20% | < 20% | – | < 20% | –
